# Laboratory results taken from the nanobody polyreactivity screen of Harvey et al. (2022).
# Experiment: yeast display, Sf9 membrane polyspecificity reagent, FACS + sequencing; frameworks hold sequencing errors
# Procedure, shortened: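 A synthetic nanobody library was expressed on Saccharomyces cerevisiae BJ5465 by galactose induction for 36–48 hours. The library was stained for 1 hour at 4 °C with 10% biotinylated, detergent-solubilized Sf9 membrane reagent and enriched with streptavidin microbeads before FACS. Low and high (top ~1%) gates were set on anti-HA fluorescence for expression and streptavidin fluorescence for reagent binding, and each polyreactivity label reflects the gate of origin.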
row,Sequence,polyreactivity (PSR sort gate)
1,QVQLVESGGGLVQAGGSLRLSCAASGSIFYLYAMGWYRQAPGKERELVAAISWSTSGTYYADSVKGRFTISRDNAKNTVYLQMNSLKPEDTAVYYCAADVYSPWWYDYWGQGTQVTVSS,high polyreactivity
2,QVQLVESGGGLVQAGGSLRLSCAASGSIFYLYAMGWYRQAPGKERELVAAITSIGGSTYADSVKGRFTISRDNAKNTVYLQMNSLKPEDTALYYCNTDEYPLTVQVQYYYWGQGTQVTVSS,low polyreactivity
3,QVQLVESGGGLVQAGGSLRLSCAASGSIFYLYAMGWYRQAPGKERELVAAITWRGGITNYADSVKGRFTISRDNAKNTVYLQMNSLKPEDTAVYYCAADPYRFLATELYYWGQGTQVTVSS,low polyreactivity
4,QVQLVESGGGLVQAGGSLRLSCAASGSIFYLYAMGWYRQAPGKERELVASISSDGSTNYADSVKGRFTISRDNAKNTVYLQMNSLKPEDTAVYYCAADEGTGQASLSSNLYDYWGQGTQVTVSS,low polyreactivity
5,QVQLVESGGGLVQAGGSLRLSCAASGSIFYLYAMGWYRQAPGKERELVASISWGDSSTYYADSVKGRFTISRDNAKNTVYLQMNSLKPEDTAVYYCAADEYRQYALYDYWGQGTQVTVSS,low polyreactivity
6,QVQLVESGGGLVQAGGSLRLSCAASGSIFYLYAMGWYRQAPGKERELVATITASGGSTNYADSVKGRFTISRDNAKNTVYLQMNSLKPEDTAVYYCAAEYYYLVYYYKEIVAYDYWGQGTQVTVSS,high polyreactivity
7,QVQLVESGGGLVQAGGSLRLSCAASGSIFYLYAMGWYRQAPGKETEVVAAITSIGGSTYADSVKGRFTISRDNAKNTVYLQLNSLKPDDTAVYYCNTDVYPLTVQVQYYYWGQGTQVTVSS,low polyreactivity
8,QVQLVESGGGLVQAGGSLRLSCAASGSIFYLYTMGRYRQAPGKERELVAAITNGGSTDYADSVKGRFTISRDNAKNTVYLQMNSLKPEDTAVYYCNADPRYPVDELEYWVTTPYDYWGQGTQVTVSS,low polyreactivity
9,QVQLVESGGGLVQAGGSLRLSCAASGSIFYLYTMGWYRQAPGKERELVASITYSGGTYYADSVKGRFTISRDNAKNTVYLQINSLKPEDTAVYYCNADASYYLDDEYDYWGQGTQVTVSS,low polyreactivity
10,QVQLVESGGGLVQAGGSLRLSCAASGSIFYNAMGWYRQAPGKERELVASISWSGGTSTYYADSVKGRFTISRDNAKNTVYLQMNSLKPEDTAVYYCAKASRYSSYWMYYWGQGTQVTVSS,high polyreactivity
11,QVQLVESGGGLVQAGGSLRLSCAASGSIFYNNAMGWYRQAPGKERELVATIRRSGGSTYYADSVKGRFTISRDNAKNTVYLQMNSLKPEDTAVYYCAADYTPDLLSKVDYWGQGTQVTVSS,low polyreactivity
12,QVQLVESGGGLVQAGGSLRLSCAASGSIFYNYAMGWYRQAPGKEREFVAAISRSGGSTYYADSVKGRFTISRDNAKNTVYLQMNSLKPEDSAVYYCAASTRYSAFYPYGYWGQGTQVTVSS,high polyreactivity
13,QVQLVESGGGLVQAGGSLRLSCAASGSIFYNYAMGWYRQAPGKERELVAAISGSGGSTYYADSVKGRFTISRDNAKNTVYGQMNSLKPEDTAVYYCSTSGPQYYSRNFDYWGQGTQVTVSS,low polyreactivity
14,QVQLVESGGGLVQAGGSLRLSCAASGSIFYPNAMGWYRQAPGKERELVAAINGGGSTYYADSVKGRFTISRDNAKNTVYLQMNSLKPEDTAVYYCAADSNDVYYDTPSYDYWGQGTQVTVSS,low polyreactivity
15,QVQLVESGGGLVQAGGSLRLSCAASGSIFYPNAMGWYRQAPGKERELVAVITGGATTYYADSVKGRFTISRDNAKNTVYLQMNSLKPEDTAVYYCAADSAENVYRGYYWGQGTQVTVSS,low polyreactivity
16,QVQLVESGGGLVQAGGSLRLSCAASGSIFYPNAMGWYRQAPGKESELVAAISSSGGTNYADSVKGRFTISRDNAKNTVYLQMNSLKPEDTAVYYCAADIRSNRLYDGGYWGQGTQVTVSS,low polyreactivity
17,QVQLVESGGGLVQAGGSLRLSCAASGSIFYPYAMGWYRKAPGKERELVASITINDGSTYYADSVKGRFTISRDNAKHTFYLPMNRLIQEDPAVYYCNVDPVPGFGSVYEYWGQGTQVTVSS,low polyreactivity
18,QVQLVESGGGLVQAGGSLRLSCAASGSIFYPYAMGWYRQAPGKERELVAAIRNGGSTYYADSVKGRFTISRDNAKNTVYLHMNSLKPEDTAVYYCAASVRRRHPFEYWGQGTQVTVSS,high polyreactivity
19,QVQLVESGGGLVQAGGSLRLSCAASGSIFYPYAMGWYRQAPGKERELVAAISWSGTRTYYADSVKGRFTISRDNAKNTVYLQMNSLKPEDTAVYYCAAYLPGYREQVDTNSWGQGTQVTVSS,low polyreactivity
20,QVQLVESGGGLVQAGGSLRLSCAASGSIFYQNARGWYRQAPGKERELVAAISISDGSTYYADSVNGRFTISRDNAKNTVYLQMNILKPEDTAVYYCNADSLYYDPYDYWGQGTQVTVSS,low polyreactivity
21,QVQLVESGGGLVQAGGSLRLSCAASGSIFYQYAMGWYRQAPGKERELVAAISVRAGITYYADSVKGRFTISRDNAKNTVYLQMNSLKPEETAVYYGAKDHWTTSYDEGDYWGQGTQVTVSS,low polyreactivity
22,QVQLVESGGGLVQAGGSLRLSCAASGSIFYRNAMGCSRQARGKERELVAAISSSGTRTYYADSVKGRFTISRDNAKNTVYLQMNILKPEDTAVYYCAAGVVLWYRRRYYYWGQGTQVTVSS,high polyreactivity
23,QVQLVESGGGLVQAGGSLRLSCAASGSIFYRNAMGWYRQAPGKERELVAAISWSGASTSYADSVKGRFTISPDNAKNTVYLQMNSLIPDATAVYYCNAGKYAYLWLKLFAPKLDYWGQGTQVTVSS,low polyreactivity
24,QVQLVESGGGLVQAGGSLRLSCAASGSIFYRNAMGWYRQATGKERELVAAISASGGSTYYADSVKGRFTISRDNAKNTVYLQINSLKPEDTAVYYCAVEYRKSRSYYPYYYWGQGTQVTVSS,high polyreactivity
25,QVQLVESGGGLVQAGGSLRLSCAASGSIFYRNDMGWYRQAPGKERELVAAITWSGVNTYYADSVKGRFTISRDNAKNTVYLQMNSLKPEDTAVYYCAVPSRYWLNRGFDYWGQGTQVTVSS,low polyreactivity
26,QVQLVESGGGLVQAGGSLRLSCAASGSIFYRNVMGWYRQAPGKERELVASINFSGGSTYYADCVKGRFTISRDNAKNTVYLQMNSLKPEDTAVYYCAARTVHIYTRMYYWGQGTQVTVSS,high polyreactivity
27,QVQLVESGGGLVQAGGSLRLSCAASGSIFYRNVMGWYRQAPGKERELVATISRGGTSNYADSVKGRFTISRDNAKNTVYLQMNSLKPEDTAVYYCAAPIGDVYVGKGYDSWGQGTQVTVSS,low polyreactivity
28,QVQLVESGGGLVQAGGSLRLSCAASGSIFYRYAIGWYRHPPGKERELVAAITRGGTTYYADSVKGRFTISRDNAKNTVYLQMNSLKPEDSAVYYCAARLRYTTVIYYYWGQGTQVTVSS,high polyreactivity
29,QVQLVESGGGLVQAGGSLRLSCAASGSIFYRYAMGWNRQAPGKERELVATITQSGVSTYYADSEKGRFTISRDNAKNTVYLQMNSLKPEDTAVYYCAASYYYTIGPYFRKFDWGQGTQVTVSS,low polyreactivity
30,QVQLVESGGGLVQAGGSLRLSCAASGSIFYRYAMGWSRQAPGKERELVAAISSGSSTHYADSVKGRFTMSRDNAKNTVYLQMNSLKPEDTAVYYCAARYRAYTSTRRFDYWGQGTQVTVSS,high polyreactivity
